Results on two molecules are retold here after publication PMC6863705 (Protein Science : A Publication of the Protein Society, 2019).

For one assay, the target named is T1, Ssk1-R2-K525A (S. cerevisiae, UniProt Q07084 495-712, K525A).
T1 sequence: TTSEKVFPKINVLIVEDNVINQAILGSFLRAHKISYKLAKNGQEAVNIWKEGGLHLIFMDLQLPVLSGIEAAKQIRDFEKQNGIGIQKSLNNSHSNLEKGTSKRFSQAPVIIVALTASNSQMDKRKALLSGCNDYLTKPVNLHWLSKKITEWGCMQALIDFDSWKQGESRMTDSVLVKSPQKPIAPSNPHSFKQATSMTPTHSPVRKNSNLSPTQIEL
Briefly: other fluorescence titration.

The target in another assay is T2, Ssk1-R2-W638A (S. cerevisiae, UniProt Q07084 495-712, W638A).
T2 sequence: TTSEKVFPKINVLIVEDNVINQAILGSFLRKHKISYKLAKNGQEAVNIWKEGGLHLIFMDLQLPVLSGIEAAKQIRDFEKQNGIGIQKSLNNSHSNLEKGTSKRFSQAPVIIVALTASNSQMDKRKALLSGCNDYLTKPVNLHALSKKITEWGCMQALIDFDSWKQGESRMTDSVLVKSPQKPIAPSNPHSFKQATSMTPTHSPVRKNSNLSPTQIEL
Briefly: other fluorescence titration.

In another assay the target is T3, Ssk1-R2-R524A (S. cerevisiae, UniProt Q07084 495-712, R524A).
T3 sequence: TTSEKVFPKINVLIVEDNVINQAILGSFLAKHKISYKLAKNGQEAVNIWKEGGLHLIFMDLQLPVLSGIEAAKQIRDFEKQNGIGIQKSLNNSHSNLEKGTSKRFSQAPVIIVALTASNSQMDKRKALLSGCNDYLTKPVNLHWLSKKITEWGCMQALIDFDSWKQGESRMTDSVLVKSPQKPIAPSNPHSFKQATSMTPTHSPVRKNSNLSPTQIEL
Briefly: other fluorescence titration.

Assay [1] addresses T4, Receiver domain of Ssk1 (Ssk1-R2), wild type (S. cerevisiae, UniProt Q07084 495-712).
T4 sequence: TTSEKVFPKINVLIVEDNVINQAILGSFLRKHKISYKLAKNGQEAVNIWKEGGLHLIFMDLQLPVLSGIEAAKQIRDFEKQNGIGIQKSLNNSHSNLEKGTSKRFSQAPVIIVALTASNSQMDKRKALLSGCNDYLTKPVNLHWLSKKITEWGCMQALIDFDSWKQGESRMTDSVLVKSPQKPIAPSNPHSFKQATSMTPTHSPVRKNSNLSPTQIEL
Briefly: other fluorescence titration.

In assay [2] the target is T5, Selenomethionine derivative of Ssk1-R2-W638A (S. cerevisiae, UniProt Q07084 495-712, W638A, selenomethionine incorporated).
T5 sequence: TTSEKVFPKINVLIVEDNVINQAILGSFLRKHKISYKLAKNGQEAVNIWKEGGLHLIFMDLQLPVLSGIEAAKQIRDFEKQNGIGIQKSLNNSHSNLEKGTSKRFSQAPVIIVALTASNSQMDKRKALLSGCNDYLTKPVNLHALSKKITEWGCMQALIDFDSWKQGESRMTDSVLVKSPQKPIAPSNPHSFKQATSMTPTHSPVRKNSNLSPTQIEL
Briefly: crystal structure.

B1: Fluoresceinated Ypd1-T12C variant (Ypd1-T12C~F) (natural protein, S. cerevisiae, UniProt Q07688 1-167, looked up)
chain: MSTIPSEIINWCILNEIISMDDDDSDFSKGLIIQFIDQAQTTFAQMQRQLDGEKNLTELDNLGHFLKGSSAALGLQRIAWVCERIQNLGRKMEHFFPNKTELVNTLSDKSIINGINIDEDDEEIKIQVDDKDENSIYLILIAKALNQSRLEFKLARIELSKYYNTNL
modifications: 5-iodoacetamidofluorescein (5-IAF) on the cysteine at 12 (T12C)
Consider B1, for which the Kd is 640 nM in the assay with Ssk1-R2-K525A, 219 nM with Ssk1-R2-W638A, 918 nM with Ssk1-R2-R524A and 23.7 nM in assay [1].

B2: Ypd1 (histidine phosphotransfer protein) from S. cerevisiae (natural protein, UniProt Q07688 1-167, looked up)
chain: MSTIPSEIINWTILNEIISMDDDDSDFSKGLIIQFIDQAQTTFAQMQRQLDGEKNLTELDNLGHFLKGSSAALGLQRIAWVCERIQNLGRKMEHFFPNKTELVNTLSDKSIINGINIDEDDEEIKIQVDDKDENSIYLILIAKALNQSRLEFKLARIELSKYYNTNL
For B2, in assay [2], the binding result is “binds”.

A word on the Kd: it is the constant that tells how readily two partners part at equilibrium. The low end stands for higher affinity, the high end for lower affinity.
